What all share (test): HPLC of glucoside product
What all share (assay type): biochemical, Camellia sinensis

Substrate in series [1]: O=C(O)/C=C/c1ccc(O)cc1
The conditions noted are these: UDP-glucose as sugar donor; optimum pH 6.5, 40 °C; pH 6.5; 40.0 °C.

Substrate in series [2]: O=C(O)Cc1c[nH]c2ccccc12
The following applies: UDP-glucose as sugar donor; optimum pH 6.5, 30 °C; pH 6.5; 30.0 °C.

Substrate in series [3]: O=c1c(O)c(-c2ccc(O)cc2)oc2cc(O)cc(O)c12
The conditions noted are these: UDP-glucose as sugar donor; optimum pH 9.5, 40 °C; pH 9.5; 40.0 °C.

B1: rCsUGT84J2 (TEA000239) (Camellia sinensis) (protein)
chain: MAAMEKKEEIHVLMVAFSSQGHINPMLRLAKRLHSKGLHVTLATTEIARHRMLTSSSATTTAVAANSIDGISLAFFSDGLSLDYDRKTNLDHYMDSLGRAGPANLSSIILHHHSHGGRKFSCIVTNPFIPWAADVAAEHGIPCALLWIQPCSLYSIYYRFYNHLNQFPSSANPNMSVELPGLPLLNTEDLPSFVLPSNPFGSFPKLFCGLFQNMQKMKWVLANSFHELESQAIDSMFDIHPVLPIGPLVPPSILGEDQAVDAGVEMWKSEDNCIEWLDQQQPNSVIYVSFGSVVILSPLQMESIATGLKNCNRPFLWVVKKSDYTAKEGEGQLPLGFLEETKGRGLVVQWSPQIKVLMNPAVGCFLTHCGWNSMLETIAAGVPVIAYPQWTDQPTNAKLMAEVLRVGVRLRPNQDGVVTNEEVERRIEDVMCGPEAEEFREKAAELKVAARVAVADGGSSDRNIQLFVDEIIGDSST
Turning to B1, the Km amounted to 0.243 µM in series [1], 0.522 µM in series [2] and 0.127 µM in series [3].

The term Km denotes the concentration of substrate that gives half-maximal velocity.

These data come from paper PMC10282599, “Al-induced CsUGT84J2 enhances flavonol and auxin accumulation to promote root growth in tea plants” (Horticulture Research, 2023).
